First the molecules themselves.
B1: FF5 (antibody, human IgG1, kappa, L234A L235A, V domains shown)
VH: QVQLVQSGAEVKKPGASVKVSCKASGYTFTDYEVHWVRQAPGQGLEWMGAIHPGSGGAAYVQKFQGRVTMTRDTSISTAYMELSRLRSDDTAVYYCARWLPMDYWGQGTLVTVSS
VL: DIQMTQSPSSVSASVGDRVTITCRASQGINNWLVWYQQKPGKAPKLLLYAASRLESGVPSRFSGSGSGTDYTLTISSLQPEDIATYYCQQYLITPYTFGQGTKLEIKR
notes: Humaneered variant of E2E10, tested as full human IgG; Biotinylated for the neutrophil assay; also called LLG787; LLG787 (FF5)
B2: FF6 (antibody, human IgG1, kappa, L234A L235A, V domains shown)
VH: B1 VH with M102I
VL: B1 VL
notes: Humaneered variant of E2E10, tested as full human IgG; Biotinylated for the neutrophil assay; also called LLG788; LLG788 (FF6)
B3: FF1 (antibody, human IgG1, kappa, L234A L235A, V domains shown)
VH: B1 VH with I76T, R85S
VL: B1 VL with L48I, R53S, E55Q, T69A, I83F
notes: Humaneered variant of E2E10, tested as full human IgG (captured or detected with anti-human IgG); Biotinylated for the neutrophil assay; also called LLG783; LLG783 (FF1)
B4: FF4 (antibody, human IgG1, kappa, L234A L235A, V domains shown)
VH: B1 VH
VL: B1 VL with N30T, V34A, L48I, R53I
notes: Humaneered variant of E2E10, tested as full human IgG; the text and claims pair heavy chain 56 with light chain 66; Biotinylated for the neutrophil assay; also called LLG786; LLG786 (FF4)
B5: FF3 (antibody, human IgG1, kappa, L234A L235A, V domains shown)
VH: B1 VH
VL: B1 VL with L48I, R53S, E55Q, T69A, I83F
notes: Humaneered variant of E2E10, tested as full human IgG; Biotinylated for the neutrophil assay; also called LLG785; LLG785 (FF3)

Numbering of substitutions follows the chain as printed.

As usually defined, the EC50 is the concentration giving half of the maximal effect. What is called IC50 is the concentration that gives 50% inhibition. The term koff denotes a measure of how fast the partners let go of each other. The kon is the rate constant with which the complex forms.

The target of the first test is T1, Human LOX-1 full-length protein (human, UniProt P78380 1-273).
T1 construct: also called huLOX-1/HEK293 cells; human LOX-1 transfected HEK293 cells
As to the kind of experiment: flow cytometry, biotinylated antibody on primary human neutrophils, PE-streptavidin. How it is done: The resulting cell suspension was carefully transferred to a 50 mL conical tube containing 10 mL Ficoll-Paque, layering the cell suspension on top of the Ficoll-Paque, and the tube was then centrifuged at 1400 rpm (400×g) for 30 minutes at room temperature. The top layer was the discarded. To the resulting cell pellet, 10 mL 0.2% ice-cold sodium chloride was added, and the mixture was incubated for exactly 30 seconds to lyse red blood cells; 10 mL of ice-cold 1.6% sodium chloride was added to restore isotonicity. The cell suspension was then centrifuged at 1200 rpm ([…]) for 5 minutes. The supernantant was then discarded, and the red blood cell lysis procedure repeated once more. The resulting cell pellet was resuspended in FACS buffer (2 mM EDTA, 1% BSA, and 0.2% sodium azide in PBS) at a cell density of 2×10⁶ cells/mL.
The cell suspension containing freshly isolated human neutrophils was transferred (50 ul/well) to wells of a 96-well V-bottom plate (1×10⁵ cells/well) (Costar, catalog number 3894). Blocking buffer (4% normal rabbit serum diluted in FACS buffer (2 mM EDTA, 1% BSA, and 0.2% sodium azide in PBS) (50 ul/well) was added and the plate was incubated on ice for 30 minutes. Biotinylated LOX-1 antibody (10 μl) in FACS buffer was then added to the wells at final concentrations ranging from 1 ng/ml to 5 ug/mL, and the plate was incubated on ice for 30 minutes. The plate was then centrifuged at 1200 rpm (250-300×g) for 3 minutes and supernatant was discarded. The cells were then washed twice with 0.2 mL FACS buffer, and then 0.1 mL of PE-streptavidin (BD Pharmingen catalog number 554061) diluted at 1:250 in FACS buffer was added, and the plate incubated on ice for 30 minutes. The plate was then centrifuged again, supernatant discarded, and the cells washed twice with 0.2 mL FACS buffer. Cells were then resuspended in 0.1 mL of fixing buffer (FACS buffer with 2% paraformaldehyde) and analyzed using a FACS instrument. To determine an EC50 value for neutrophil binding by LOX-1 antibodies, the LOX-1 staining intensity determined by FACS was plotted vs. the concentration of the antibody as shown in FIG. 5 and Table 3.
A general note: In flow cytometry, cells or beads pass a laser one at a time.
B1 came in with an EC50 of 0.08 µg/mL.

B2 returned an EC50 of 0.28 µg/mL.

The molecule B3 showed an EC50 of 0.15 µg/mL.

In turn, B4 registered an EC50 of 0.23 µg/mL.

Regarding B5, the EC50 worked out at 0.13 µg/mL.

A further test addresses T1, Human LOX-1 full-length protein. Kind of test: flow cytometry, inhibition of dil-OxLDL binding to huLOX-1/HEK293 cells. How it is done:
The huLOX-1/HEK293 cells were resuspended at 1×10⁶ cells/mL and seeded 50 μL per well into a 96-well V-bottom plate (5×10⁴ cells per well). LOX-1 or irrelevant control antibodies in assay medium (DMEM+10% FBS) were then added to the cells. Typical final antibody concentrations ranged from 0.006 μg/mL to 20 μg/mL. The cells were incubated at 37° C. for 1 hour, then washed twice with warm HBSS. Dil-oxLDL (human dil-labeled “High Oxidized” LDL, Kalen Biomedical, catalog number 770262-9; Dil is 1,1′-dioctadecyl-3,3,3′,3′-tetramethylindocarbocyanine perchlorate) in 50 ul assay medium was then added to a final concentration 30 to 100 μg/mL. The cells were then incubated at 37° C. for 2 hours, and then washed twice with FACS buffer (2% FBS in PBS). Cells were then analyzed for intensity of Di-I fluorescence by flow cytometry, as depicted in FIG. 2 and Table 3.
B1: the IC50 was 4.1 nM.

For the molecule B2, the IC50 was 5.9 nM.

For B3, the IC50 was found to be 5.5 nM.

B4 yielded an IC50 of 5 nM.

For B5, the IC50 stood at 3.3 nM.

The next test deals with T2, APP-Avi-soluble cynomolgus monkey LOX-1 (61-273) (cynomolgus monkey, biotinylated at the Avi tag when immobilised in the SET assay).
T2 construct: Expressed and purified in the same way as the human protein; also called cynomolgus monkey soluble LOX-1; Cynomolgus Monkey Soluble APP-Avi-LOX-1
T2 sequence (chain, as listed by the source): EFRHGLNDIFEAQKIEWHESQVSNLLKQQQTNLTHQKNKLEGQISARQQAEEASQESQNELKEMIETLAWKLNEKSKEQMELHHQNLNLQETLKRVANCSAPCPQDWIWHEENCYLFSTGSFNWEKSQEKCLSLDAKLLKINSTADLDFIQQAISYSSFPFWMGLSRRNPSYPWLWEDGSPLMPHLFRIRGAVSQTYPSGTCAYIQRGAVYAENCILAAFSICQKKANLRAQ
Kind of test: SPR Biacore T200, antibody captured by anti-human IgG, cynomolgus soluble LOX-1 as analyte, 1:1 model. How it is done: Surface plasmon resonance measurements quantifying the interaction of humanized LOX-1 antibodies with human or cynomolgus monkey LOX-1 were done with the optical biosensor BIAcore T200 on a CM5 chip. Goat-anti-hlgG (gamma) (Invitrogen H10500) was coated at 3,000 RU on the CM5 chip in acetate buffer, pH 4.0. The running buffer used was PBS, pH 7.4 (filtered, degassed). Test antibodies were loaded into individual flow cells at a concentration of 1 ug/mL at a flow rate of 10 uL/min. The target number of IgG capture was between 20-30 RU, in HBS-EP buffer (0.01M HEPES, pH 7.4, 0.15M NaCl, 3 mM EDTA, 0.05% P20). Human or cynomolgus monkey soluble LOX-1 was diluted to a concentration of 33 nM in HBS-EP buffer, then diluted serially (1:3) down to a concentration of 0.137 nM. This represents six different concentrations of human or cynomolgus monkey LOX-1. The antigen was introduced into individual flow cells at a flow rate of 30 uL/min. Parameters for association time were set at 700 seconds and dissociation time was set at 5,400 seconds. Data were analyzed using buffer blanks, reference blank, and a 1:1 binding model for curve fitting in order to determine association and dissociation rate constants (ka and kd) and equilibrium binding constants (KD) (see results for FF1, FF3, FF4, FF5, and FF6 in Tables 7-8).
For orientation: In SPR one partner is held on a chip, and binding of the other changes the refractive index at the surface.
For B1, the Kd is 0.035 nM, the koff worked out at 4.8e-05 s⁻¹ and the kon amounted to 1.4e+06 M⁻¹ s⁻¹.

In turn, B2 registered a Kd of 0.053 nM, a koff of 5e-05 s⁻¹ and a kon of 950000 M⁻¹ s⁻¹.

Take B3: the Kd stood at 0.012 nM, the koff came out at 1.3e-05 s⁻¹ and the kon was 1.1e+06 M⁻¹ s⁻¹.

B4 returned a Kd of 0.001 nM, a koff of 2.6e-06 s⁻¹ and a kon of 2.1e+06 M⁻¹ s⁻¹.

As to B5, the Kd was found to be 0.023 nM, the koff came out at 1.7e-05 s⁻¹ and the kon came out at 770000 M⁻¹ s⁻¹.

For the next test, the target named is Human Soluble His9-LOX-1 from R&D Systems (human, UniProt P78380 61-273). Kind of test: solution equilibrium titration (SET), MSD read-out. As to the method:
(§1) For humanized LOX-1 antibodies FF1, FF3, FF4, FF5, and FF6, the following solution equilibrium titration (SET) assay protocol was used to determine KD values. The assays were performed in a 96-well polypropylene plate (Thermo Scientific, Catalog no. AB-1127) as follows. A constant concentration of LOX-1 antibody (1 pM) was mixed with different concentrations of non-biotinylated human or cynomolgus monkey LOX-1 protein (3-fold serial dilution ranging from 1 nM to 0.017 pM) in SET buffer (PBS, pH 7.4 without CaCl₂ or MgCl₂, Gibco, catalog no. P7949; 0.5% w/v bovine serum albumin, fatty acid free, Calbiochem, catalog no. 26575; and 0.02% v/v Tween-20, Sigma, catalog no. P7949). The final reaction volume was […]. The plate was sealed using an adhesive film (WVR, catalog no. 60941-062) and incubated at 22° C. for 14 hours with constant shaking (300 rpm).
(§2) During the same period, a 384-well streptavidin-coated MSD plate (Meso Scale Discovery, catalog no. L21SA) was blocked by incubating the plate with 50 μL blocking buffer (PBS, pH 7.4, 5% w/v bovine serum albumuin) per well overnight at 4° C. The blocked MSD plate was then washed 3 times with wash buffer (PBS, pH 7.4 and 0.05% v/v Tween-20) using a plate washer (BioTek). Following washing, biotinylated human or cynomolgus monkey soluble LOX-1 protein (25 pM, 15 μL per well) was immobilized on the surface by incubation at 22° C. for one hour with constant shaking (600 rpm). The plate was then washed 3 times as described earlier. In some experiments, non-biotinylated soluble human LOX-1 protein was used (R&D systems, catalog no. 1798-LX-050) was used; in this case the LOX-1 protein was immobilized by overnight incubation at 1 nM concentration in a standard MSD plate (MSD, catalog no. L21XA). The equilibrium binding reactions (15 μL per well) were then applied to the MSD plate with immobilized LOX-1 and incubated for 30 min. The unbound material was removed by washing the plate, and the captured antibody was detected by adding 15 μL per well of a 1:500 dilution of Sulfa-tagged goat anti-human IgG (Mesa Scale Discovery, catalog no. R3AJ-1). The plate was then incubated for one hour with constant shaking (600 rpm). The plate was washed 3 times, and then […] 1×MSD read buffer T(Meso Scale Discovery, catalog no. R92TC-2) was added and the plate was developed using a Sector Imager 6000 (Mesa Scale Discovery).
As for B1, the Kd came out at 0.0008 nM.

B2: the Kd turned out to be 0.002 nM.

On to B3, for which the Kd was 0.0031 nM.

With B4, the Kd came out at 0.0007 nM.

B5: the Kd was determined as 0.0023 nM.

The next test addresses T2, APP-Avi-soluble cynomolgus monkey LOX-1 …. As to the kind of experiment: solution equilibrium titration (SET), MSD read-out. As to the method:
as §1, §2
B1: the Kd came to 0.0006 nM.

Turning to B2, the Kd was determined as 0.0016 nM.

As for B3, the Kd was determined as 0.0018 nM.

Take B4: the Kd was determined as 0.0007 nM.

On to B5, for which the Kd was found to be 0.0034 nM.

The next test deals with T1, Human LOX-1 full-length protein. Kind of test: cell-based or functional assay.
Turning to B1, the “Reactive oxygen species (ROS) generation in huLOX-1/HEK293 cells (IC50, nM)” value (from here on “Reactive oxygen species (ROS) generation”) worked out at 4.8 nM.

Consider B2, for which the “Reactive oxygen species (ROS) generation” value was found to be 7.9 nM.

With B3, the “Reactive oxygen species (ROS) generation” value was determined as 6 nM.

With B4, the “Reactive oxygen species (ROS) generation” value is 5.3 nM.

For the molecule B5, the “Reactive oxygen species (ROS) generation” value amounted to 7.4 nM.

The values above are taken from patent publication US20170152313A1 (Novartis, published 2017).
